Experimental data: US20140072613A1 (published 2014)

T1: NEK11(h) (human, UniProt Q8NG66 1-645, limits assumed)
T1 sequence (looked up): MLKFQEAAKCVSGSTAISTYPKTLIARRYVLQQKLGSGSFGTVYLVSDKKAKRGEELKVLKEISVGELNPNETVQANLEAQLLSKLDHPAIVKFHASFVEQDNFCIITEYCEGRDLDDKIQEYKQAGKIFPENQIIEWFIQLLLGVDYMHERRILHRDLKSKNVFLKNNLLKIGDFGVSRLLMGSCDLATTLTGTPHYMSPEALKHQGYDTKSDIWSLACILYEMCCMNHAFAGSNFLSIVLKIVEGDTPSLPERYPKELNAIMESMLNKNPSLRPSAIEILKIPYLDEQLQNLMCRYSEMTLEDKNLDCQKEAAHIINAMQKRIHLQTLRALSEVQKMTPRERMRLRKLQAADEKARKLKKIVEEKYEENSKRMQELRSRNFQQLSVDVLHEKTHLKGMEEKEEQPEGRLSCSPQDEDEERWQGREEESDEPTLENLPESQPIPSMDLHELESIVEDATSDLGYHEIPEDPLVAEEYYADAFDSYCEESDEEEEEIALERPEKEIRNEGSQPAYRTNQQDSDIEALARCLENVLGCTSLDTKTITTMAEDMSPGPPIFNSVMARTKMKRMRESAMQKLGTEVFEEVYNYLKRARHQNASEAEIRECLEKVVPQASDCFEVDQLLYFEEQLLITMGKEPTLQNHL

T2: Aurora-A(h) (human, UniProt O14965 1-403)
T2 sequence (looked up): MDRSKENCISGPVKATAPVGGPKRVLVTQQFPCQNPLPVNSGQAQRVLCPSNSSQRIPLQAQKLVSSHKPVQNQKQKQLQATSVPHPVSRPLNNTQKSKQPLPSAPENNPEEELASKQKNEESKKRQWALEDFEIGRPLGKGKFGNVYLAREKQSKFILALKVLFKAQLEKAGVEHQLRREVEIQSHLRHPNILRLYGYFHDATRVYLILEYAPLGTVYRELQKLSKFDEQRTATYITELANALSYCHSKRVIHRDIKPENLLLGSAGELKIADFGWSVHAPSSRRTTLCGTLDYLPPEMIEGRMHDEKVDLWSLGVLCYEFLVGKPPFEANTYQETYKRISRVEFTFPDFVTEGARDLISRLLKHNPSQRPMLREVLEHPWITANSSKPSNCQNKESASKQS

T3: Rse(h) (human, UniProt Q06418 451-890, limits assumed)
T3 sequence (looked up): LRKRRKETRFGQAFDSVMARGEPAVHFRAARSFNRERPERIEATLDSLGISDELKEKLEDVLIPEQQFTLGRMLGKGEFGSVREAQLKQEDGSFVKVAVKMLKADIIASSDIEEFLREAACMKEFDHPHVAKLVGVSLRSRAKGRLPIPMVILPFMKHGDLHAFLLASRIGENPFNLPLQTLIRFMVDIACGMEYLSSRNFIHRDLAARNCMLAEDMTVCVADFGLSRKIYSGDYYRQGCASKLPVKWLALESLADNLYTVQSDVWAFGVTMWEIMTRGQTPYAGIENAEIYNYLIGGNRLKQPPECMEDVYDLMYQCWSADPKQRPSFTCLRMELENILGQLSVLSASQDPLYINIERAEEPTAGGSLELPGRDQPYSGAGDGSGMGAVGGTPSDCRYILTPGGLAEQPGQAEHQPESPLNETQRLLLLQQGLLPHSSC

T4: EphB4(h) (human, UniProt P54760 561-987, limits assumed)
T4 sequence (looked up): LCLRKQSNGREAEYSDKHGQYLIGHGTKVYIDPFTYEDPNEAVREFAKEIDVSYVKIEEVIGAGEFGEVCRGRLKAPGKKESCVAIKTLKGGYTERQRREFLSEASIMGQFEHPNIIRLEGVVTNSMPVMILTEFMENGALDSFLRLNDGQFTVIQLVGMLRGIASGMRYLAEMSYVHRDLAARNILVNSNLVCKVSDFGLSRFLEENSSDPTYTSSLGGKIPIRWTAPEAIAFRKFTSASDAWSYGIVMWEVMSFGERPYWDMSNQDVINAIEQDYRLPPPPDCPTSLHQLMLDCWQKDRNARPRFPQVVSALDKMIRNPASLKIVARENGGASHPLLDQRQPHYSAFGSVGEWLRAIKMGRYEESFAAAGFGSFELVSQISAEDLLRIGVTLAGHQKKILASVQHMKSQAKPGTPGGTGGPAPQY


Key:
Experiment in all cases: cell-based or functional assay
Hck(h) = Hck(h) (human, UniProt P08631 251-518, limits assumed)
Lck(h) activated = Lck(h) activated (human, UniProt P06239 1-509)
LIMK1(h) = LIMK1(h) (human, UniProt P53667 285-638, limits assumed)
Mnk2(h) = Mnk2(h) (human, UniProt Q9HBH9 1-465, limits assumed)
NEK11(h) = target: T1, NEK11(h)
PAK3(h) = PAK3(h) (human, UniProt O75914 1-559, limits assumed)
ASK1(h) = ASK1(h) (human, UniProt Q99683 649-946, limits assumed)
Pim-2(h) = Pim-2(h) (human, UniProt Q9P1W9 1-311)
Aurora-A(h) = target: T2, Aurora-A(h)
Rse(h) = target: T3, Rse(h)
TrkB(h) = TrkB(h) (human, UniProt Q16620 455-822, limits assumed)
BTK(h) = BTK(h) (human, UniProt Q06187 1-659)
CDK1/cyclinB(h) = CDK1/cyclinB(h) (human, UniProt P06493 1-297; P14635 1-433)
CHK2(h) = CHK2(h) (human, UniProt O96017 5-543, limits assumed)
cKit(D816V)(h) = cKit(D816V)(h) (human, UniProt P10721 544-976)
EphB4(h) = target: T4, EphB4(h)

Mnk2(h), sequence (Q9HBH9 whole entry): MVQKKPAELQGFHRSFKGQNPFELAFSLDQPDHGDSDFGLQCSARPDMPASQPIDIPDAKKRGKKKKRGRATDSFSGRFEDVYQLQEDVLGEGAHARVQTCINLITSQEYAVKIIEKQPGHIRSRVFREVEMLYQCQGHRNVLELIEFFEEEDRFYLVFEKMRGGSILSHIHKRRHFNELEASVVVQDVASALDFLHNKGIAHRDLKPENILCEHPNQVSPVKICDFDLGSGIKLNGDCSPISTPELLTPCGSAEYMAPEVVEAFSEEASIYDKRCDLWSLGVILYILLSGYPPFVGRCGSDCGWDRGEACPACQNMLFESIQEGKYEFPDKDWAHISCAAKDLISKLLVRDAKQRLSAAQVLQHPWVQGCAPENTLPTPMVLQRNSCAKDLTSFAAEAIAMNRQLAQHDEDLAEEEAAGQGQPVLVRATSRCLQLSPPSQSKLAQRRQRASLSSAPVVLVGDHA
CHK2(h), sequence (O96017 5-543 limits assumed): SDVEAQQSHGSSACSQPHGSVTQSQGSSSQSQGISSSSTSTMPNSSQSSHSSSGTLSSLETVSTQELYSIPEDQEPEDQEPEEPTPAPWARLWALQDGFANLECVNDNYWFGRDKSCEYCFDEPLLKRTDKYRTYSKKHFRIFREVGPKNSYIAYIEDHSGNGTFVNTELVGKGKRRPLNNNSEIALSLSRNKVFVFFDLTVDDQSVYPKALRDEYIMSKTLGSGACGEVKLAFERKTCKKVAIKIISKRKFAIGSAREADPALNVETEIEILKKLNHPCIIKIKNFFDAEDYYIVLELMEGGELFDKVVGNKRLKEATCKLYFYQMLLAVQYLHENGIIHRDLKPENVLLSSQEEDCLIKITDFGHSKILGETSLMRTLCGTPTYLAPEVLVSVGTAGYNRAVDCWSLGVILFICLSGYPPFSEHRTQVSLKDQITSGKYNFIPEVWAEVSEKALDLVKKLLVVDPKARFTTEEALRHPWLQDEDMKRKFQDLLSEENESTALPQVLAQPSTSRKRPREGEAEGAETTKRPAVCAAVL
Hck(h), sequence (P08631 251-518 limits assumed): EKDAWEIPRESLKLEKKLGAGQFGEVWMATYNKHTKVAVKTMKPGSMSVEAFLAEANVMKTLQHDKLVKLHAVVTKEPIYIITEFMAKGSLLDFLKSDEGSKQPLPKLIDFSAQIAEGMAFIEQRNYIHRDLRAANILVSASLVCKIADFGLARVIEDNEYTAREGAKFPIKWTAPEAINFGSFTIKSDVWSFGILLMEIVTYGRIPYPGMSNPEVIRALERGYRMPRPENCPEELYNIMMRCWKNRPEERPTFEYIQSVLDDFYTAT
BTK(h), sequence (Q06187 whole entry): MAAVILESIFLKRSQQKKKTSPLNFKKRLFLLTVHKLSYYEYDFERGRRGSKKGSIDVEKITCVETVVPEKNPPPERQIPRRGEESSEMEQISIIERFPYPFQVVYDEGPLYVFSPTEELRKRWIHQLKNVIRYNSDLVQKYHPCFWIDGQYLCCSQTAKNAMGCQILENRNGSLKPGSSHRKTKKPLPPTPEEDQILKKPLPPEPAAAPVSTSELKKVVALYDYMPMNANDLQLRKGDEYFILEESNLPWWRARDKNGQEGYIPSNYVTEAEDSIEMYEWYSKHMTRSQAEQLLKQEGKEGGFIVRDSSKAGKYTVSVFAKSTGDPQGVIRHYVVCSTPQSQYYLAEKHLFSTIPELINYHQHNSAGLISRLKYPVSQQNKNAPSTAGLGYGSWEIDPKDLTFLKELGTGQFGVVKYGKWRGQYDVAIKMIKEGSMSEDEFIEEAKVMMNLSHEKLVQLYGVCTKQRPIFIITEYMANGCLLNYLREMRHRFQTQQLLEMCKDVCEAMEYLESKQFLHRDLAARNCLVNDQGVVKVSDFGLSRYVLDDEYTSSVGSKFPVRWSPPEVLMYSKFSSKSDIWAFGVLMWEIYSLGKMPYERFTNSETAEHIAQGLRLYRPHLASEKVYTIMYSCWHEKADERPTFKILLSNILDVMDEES
LIMK1(h), sequence (P53667 285-638 limits assumed): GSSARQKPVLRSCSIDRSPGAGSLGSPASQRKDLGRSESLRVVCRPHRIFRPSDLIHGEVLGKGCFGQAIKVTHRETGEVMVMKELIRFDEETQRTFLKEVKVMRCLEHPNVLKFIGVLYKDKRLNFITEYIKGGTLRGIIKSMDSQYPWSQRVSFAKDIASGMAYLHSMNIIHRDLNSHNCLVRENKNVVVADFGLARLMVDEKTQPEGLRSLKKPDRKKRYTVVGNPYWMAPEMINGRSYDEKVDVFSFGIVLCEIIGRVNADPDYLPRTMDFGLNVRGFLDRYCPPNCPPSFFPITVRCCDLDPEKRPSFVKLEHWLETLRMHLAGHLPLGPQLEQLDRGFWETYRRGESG
ASK1(h), sequence (Q99683 649-946 limits assumed): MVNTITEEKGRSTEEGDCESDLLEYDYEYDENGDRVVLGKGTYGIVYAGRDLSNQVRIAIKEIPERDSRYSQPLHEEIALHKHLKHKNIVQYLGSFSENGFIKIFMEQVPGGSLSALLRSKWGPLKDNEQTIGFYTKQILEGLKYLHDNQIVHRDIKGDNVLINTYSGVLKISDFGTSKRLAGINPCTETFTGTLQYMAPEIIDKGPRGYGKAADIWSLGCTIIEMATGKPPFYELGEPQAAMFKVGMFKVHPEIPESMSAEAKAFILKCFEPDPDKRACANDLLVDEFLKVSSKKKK
Lck(h) activated, sequence (P06239 whole entry): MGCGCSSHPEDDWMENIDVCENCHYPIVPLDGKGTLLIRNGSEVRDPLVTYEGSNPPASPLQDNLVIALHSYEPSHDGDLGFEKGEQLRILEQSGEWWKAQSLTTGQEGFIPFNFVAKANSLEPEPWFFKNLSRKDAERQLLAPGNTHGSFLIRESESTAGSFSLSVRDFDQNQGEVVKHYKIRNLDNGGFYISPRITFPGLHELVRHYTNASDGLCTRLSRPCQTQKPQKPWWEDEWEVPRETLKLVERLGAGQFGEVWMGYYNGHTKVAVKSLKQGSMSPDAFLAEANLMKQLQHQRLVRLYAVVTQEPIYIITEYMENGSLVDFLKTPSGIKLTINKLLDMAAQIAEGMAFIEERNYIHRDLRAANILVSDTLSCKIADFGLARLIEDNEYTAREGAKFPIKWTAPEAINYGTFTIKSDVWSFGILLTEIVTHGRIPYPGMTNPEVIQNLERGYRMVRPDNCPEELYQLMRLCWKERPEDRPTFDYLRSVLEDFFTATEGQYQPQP
TrkB(h), sequence (Q16620 455-822 limits assumed): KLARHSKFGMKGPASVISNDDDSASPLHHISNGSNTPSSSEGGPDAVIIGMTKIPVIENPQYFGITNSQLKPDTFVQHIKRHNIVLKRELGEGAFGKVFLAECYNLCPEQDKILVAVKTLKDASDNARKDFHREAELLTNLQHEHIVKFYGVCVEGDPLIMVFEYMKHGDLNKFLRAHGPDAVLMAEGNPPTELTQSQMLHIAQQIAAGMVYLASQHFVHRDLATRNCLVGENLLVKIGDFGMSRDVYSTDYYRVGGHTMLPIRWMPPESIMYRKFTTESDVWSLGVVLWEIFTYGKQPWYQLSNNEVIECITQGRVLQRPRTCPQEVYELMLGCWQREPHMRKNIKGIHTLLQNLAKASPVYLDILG
cKit(D816V)(h), sequence (P10721 544-976 D816V): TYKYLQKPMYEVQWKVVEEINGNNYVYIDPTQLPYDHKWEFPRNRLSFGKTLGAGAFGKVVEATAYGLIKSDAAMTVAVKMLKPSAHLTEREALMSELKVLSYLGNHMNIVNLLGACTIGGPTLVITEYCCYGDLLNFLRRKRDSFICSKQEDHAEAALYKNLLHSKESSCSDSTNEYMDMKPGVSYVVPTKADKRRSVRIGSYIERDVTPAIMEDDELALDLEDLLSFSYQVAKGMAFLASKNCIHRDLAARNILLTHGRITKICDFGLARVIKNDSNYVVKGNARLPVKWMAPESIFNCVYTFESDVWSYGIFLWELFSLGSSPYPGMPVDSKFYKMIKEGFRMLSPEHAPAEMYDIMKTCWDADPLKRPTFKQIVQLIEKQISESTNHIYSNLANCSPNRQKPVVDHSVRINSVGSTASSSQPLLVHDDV
Pim-2(h), sequence (Q9P1W9 whole entry): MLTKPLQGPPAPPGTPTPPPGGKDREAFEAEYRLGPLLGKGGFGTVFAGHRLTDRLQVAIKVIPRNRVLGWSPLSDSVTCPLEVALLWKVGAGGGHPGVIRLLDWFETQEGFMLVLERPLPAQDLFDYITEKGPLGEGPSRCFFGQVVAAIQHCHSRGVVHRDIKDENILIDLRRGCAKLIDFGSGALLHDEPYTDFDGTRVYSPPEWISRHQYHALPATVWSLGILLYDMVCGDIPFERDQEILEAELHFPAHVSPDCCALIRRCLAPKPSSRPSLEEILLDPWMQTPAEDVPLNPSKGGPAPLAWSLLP
PAK3(h), sequence (O75914 whole entry): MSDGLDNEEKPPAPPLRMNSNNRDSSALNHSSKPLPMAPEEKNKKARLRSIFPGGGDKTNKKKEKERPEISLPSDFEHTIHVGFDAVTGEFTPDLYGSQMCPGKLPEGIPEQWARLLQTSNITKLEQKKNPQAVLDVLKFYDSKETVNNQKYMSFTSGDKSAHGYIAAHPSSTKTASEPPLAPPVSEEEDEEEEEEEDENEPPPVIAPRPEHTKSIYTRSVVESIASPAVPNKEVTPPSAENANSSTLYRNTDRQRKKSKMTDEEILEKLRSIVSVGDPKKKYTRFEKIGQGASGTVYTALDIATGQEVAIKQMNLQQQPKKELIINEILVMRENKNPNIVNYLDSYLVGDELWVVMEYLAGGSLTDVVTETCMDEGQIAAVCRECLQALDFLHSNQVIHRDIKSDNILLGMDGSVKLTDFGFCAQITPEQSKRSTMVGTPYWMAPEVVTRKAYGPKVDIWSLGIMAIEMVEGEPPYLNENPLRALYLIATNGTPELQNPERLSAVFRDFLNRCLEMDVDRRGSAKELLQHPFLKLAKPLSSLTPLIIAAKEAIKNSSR

| Binder | % activity, 100 µM (Hck(h)) | % activity, 100 µM (Lck(h) activated) | % activity, 100 µM (LIMK1(h)) | % activity, 100 µM (Mnk2(h)) | % activity, 100 µM (NEK11(h)) | % activity, 100 µM (PAK3(h)) | % activity, 100 µM (ASK1(h)) | % activity, 100 µM (Pim-2(h)) | % activity, 100 µM (Aurora-A(h)) | % activity, 100 µM (Rse(h)) | % activity, 100 µM (TrkB(h)) | % activity, 100 µM (BTK(h)) | % activity, 100 µM (CDK1/cyclinB(h)) | % activity, 100 µM (CHK2(h)) | % activity, 100 µM (cKit(D816V)(h)) | % activity, 100 µM (EphB4(h)) |
| --- | --- | --- | --- | --- | --- | --- | --- | --- | --- | --- | --- | --- | --- | --- | --- | --- |
| FAKLAARLYRKALARQLGVAA [MMI-0300] | 72% | 243% | 88% | 89% | 53% | 140% | 80% | 76% | 92% | 88% | 5% | 102% | 73% | 66% | 60% | 44% |
| KAFAKLAARLYRKALARQLGVAA [MMI-0400] | 72% | 216% | 92% | 86% | 33% | 121% | 69% | 92% | 119% | 89% | 8% | 94% | 74% | 54% | 35% | 28% |
